Test results taken from patent US20260374861 (published 2026).
Positions count from the first letter of the chain named.

B1: PR301366 (antibody, V domains shown)
VH: EVQLLESGGGLVQPGGSLRLSCAASGFTFSNYAMNWVRQAPGKGLEWVSVISVSGGSTYYADSVKGRFTISRDNSKNTLYLQMNSLRAEDTAVYYCAKDYYYDSGSYYDSFFDYWGQGTLVTVSS
VL: not shown
B2: PR303413 (antibody, V domains shown)
VH: QVQLVESGGGVVQPGRSLRLSCAASGFTFSSYGMHWVRQAPGKGLGWVAGIWYAGSNEYYVDSVKGRFIISRDNSKNTLYLQMNSLRAEDTAVYYCARDQGWGTMDAWGQGASVTVSS
VL: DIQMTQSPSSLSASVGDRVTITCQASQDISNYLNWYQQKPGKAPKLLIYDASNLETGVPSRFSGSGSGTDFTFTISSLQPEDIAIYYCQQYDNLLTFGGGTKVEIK
B3: PR302282 (antibody, V domains shown)
VH: QVQLVESGGTVVQSGRSLRLSCAASGFTFSSYGMHWVRQAPGKGLEWVAGMWYDGNYKYYADSVKGRFTISRDNSKNTLSLQMNSLRAEDTAVYYCARDSPIGVFDYWGQGTLVTVSS
VL: DIQMTQSPSSLSASVGDRVTITCQASQDISNYLNWYQQKPGKAPKLLIYDASNLETGVPSRFSGSGSGTDFTFTISSLQPEDIATYYCQQYDNLITFGQGTRLEIK
B4: PR302259-1 (antibody, V domains shown)
VH: EVQLLESGGGLVQPGGSLRLSCAVSGFTFSSYAMSWVRQAPGKGLEWVSAISDNAGSTYYADSVKGRFTISRDNSKNTLHLQMNSLRAEDTAVYSCAKERQWLVLGVMDAWGQGASVTVSS
VL: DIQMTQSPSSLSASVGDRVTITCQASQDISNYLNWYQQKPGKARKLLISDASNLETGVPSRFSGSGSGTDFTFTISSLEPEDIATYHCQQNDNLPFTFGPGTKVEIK
B5: PR302239-1 (antibody, V domains shown)
VH: QVQLQESGPGLVKPSETLSLTCTVSGDSISSYYWSWIRQPPGKGLEWIGFIYYSGSTNYNPSLKSRVTISVDTSKNQFSLKLTSVTAADTAVYYCANQLWFGESPFDYWGQGTLVTVSS
VL: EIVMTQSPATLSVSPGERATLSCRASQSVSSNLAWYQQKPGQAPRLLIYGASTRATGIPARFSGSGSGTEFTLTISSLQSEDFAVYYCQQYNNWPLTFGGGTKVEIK
B6: PR302261 (antibody, V domains shown)
VH: EVQLLESGGGLVQSGGSLRLSCAASGFTFSSYAMSWVRQAPGKGLGWVSTISGSGGSAYYADSVKGRFTVSRDNSKKTLYLQMNSLRAEDTAVYFCAILSGDDAFDIWGQGTMVTVSS
VL: DVVMTQSPLSLPVTPGEPASISCRSSQSLLRGNGYNYLDWYLQKPGQSPQLLIYLGSNRASGVPDRFSGSGSGTDFTLKISRVEAEDVGIFYCMQALQSPLTFGGGTKVEIK
B7: PR302934 (antibody, V domains shown)
VH: QVQLQQWGAGLLKPSETLSLTCAVYGGSFSGYYWSWIRQTLGKGLEWIGEVSHSGGTNYNPSLKSRVTISVDTSKNQFSLKLSSVTAADTAVYYCARSPYYGDYMYVFDIWGQGTMVTVSS
VL: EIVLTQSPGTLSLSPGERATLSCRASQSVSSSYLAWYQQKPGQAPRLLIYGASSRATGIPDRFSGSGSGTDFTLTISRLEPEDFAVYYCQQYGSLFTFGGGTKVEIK
B8: PR302264 (antibody, V domains shown)
VH: QVQLQQWGAGLLKPSETLSLTCAVYGGSLSGYYWSWIRQPPGKGLEWIGEINHSGGTNYNPSLKSRVTISVPTSKNQFSLKLTSVTAADTAVYYCARGQQQLDWYFDLWGRGTLVTVSS
VL: EIVMTQSPATLSVSPGERATLSCRASQNIYSHLVWYQQKPGQAPRLLIYGASTRATGIPARFSGSGSGTEFTLTITSLQSEDFTVYYCQQYNDWPPITFGQGTRLEIR
B9: PR302949 (antibody, V domains shown)
VH: EVQLLESGGGLVQPGGSLRLSCAASGFTFSSYAMSWVRQAPGKGLEWVSSISGSDFSTYYADSVKGRFTISRDTSKNTLYLQMNSLRAEDTAVYYCAKDRQWLVSSFDFWGQGALVTVSS
VL: B3 VL
B10: PR302951 (antibody, V domains shown)
VH: B9 VH with G26R, S31T, D55G, S57N, R72S, T74S, F109Y, A114T
VL: B3 VL
B11: PR302702 (antibody, V domains shown)
VH: B9 VH with S31T, S35T, S57N, T74I, R100Q, Q101E, S105R, D108H, F109H, A114T
VL: DIQMTQFPSSLFAFVGDRVTITCQASQDISNYLNWYQQKAGKAPKLLINDASNLETGVPSRFSGSGFGTDFTFTISSLQPEDFATYYCQQYENLPTFGGGTKVEIK
B12: PR302950 (antibody, V domains shown)
VH: QVQLQESGPGLVKPSGTLSLTCAVSGGSISSSNWWSWVRQPPGKGLEWIGEVYHSGSTNYNPSLKSRVTISVDKSQNQFSLKLTSVTAADTAVYYCARVTGNKDYYYYDLDVWGQGTTVTVSS
VL: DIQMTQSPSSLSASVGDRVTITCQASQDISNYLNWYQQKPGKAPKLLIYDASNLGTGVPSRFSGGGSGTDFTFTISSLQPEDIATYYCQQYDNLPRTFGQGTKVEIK
B13: PR302927 (antibody, V domains shown)
VH: EVQLLESGGGLVQPGGSLRLSCAASGFTFSSYAMSWVRQAPGKGLEWVSTINHIGDSTYYADSVKGRFTISRDNSKNTLYLQMNSLRAEDTAVYYCAKDQWFGVFDYWGQGTLVTVSS
VL: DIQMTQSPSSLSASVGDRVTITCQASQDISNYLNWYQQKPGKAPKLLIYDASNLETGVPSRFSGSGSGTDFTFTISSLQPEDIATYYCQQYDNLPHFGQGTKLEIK
B14: PR302259 (antibody, V domains shown)
VH: B4 VH
VL: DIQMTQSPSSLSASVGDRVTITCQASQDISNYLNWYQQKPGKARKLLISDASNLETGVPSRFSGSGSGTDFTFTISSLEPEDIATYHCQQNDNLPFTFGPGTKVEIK
B15: PR302239 (antibody, V domains shown)
VH: B5 VH
VL: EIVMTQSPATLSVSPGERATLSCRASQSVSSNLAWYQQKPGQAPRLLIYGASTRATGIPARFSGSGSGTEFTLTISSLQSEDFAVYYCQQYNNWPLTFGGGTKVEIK

Target: human ILT4 (cell surface) (human)
Sequence (chain, as listed by the source): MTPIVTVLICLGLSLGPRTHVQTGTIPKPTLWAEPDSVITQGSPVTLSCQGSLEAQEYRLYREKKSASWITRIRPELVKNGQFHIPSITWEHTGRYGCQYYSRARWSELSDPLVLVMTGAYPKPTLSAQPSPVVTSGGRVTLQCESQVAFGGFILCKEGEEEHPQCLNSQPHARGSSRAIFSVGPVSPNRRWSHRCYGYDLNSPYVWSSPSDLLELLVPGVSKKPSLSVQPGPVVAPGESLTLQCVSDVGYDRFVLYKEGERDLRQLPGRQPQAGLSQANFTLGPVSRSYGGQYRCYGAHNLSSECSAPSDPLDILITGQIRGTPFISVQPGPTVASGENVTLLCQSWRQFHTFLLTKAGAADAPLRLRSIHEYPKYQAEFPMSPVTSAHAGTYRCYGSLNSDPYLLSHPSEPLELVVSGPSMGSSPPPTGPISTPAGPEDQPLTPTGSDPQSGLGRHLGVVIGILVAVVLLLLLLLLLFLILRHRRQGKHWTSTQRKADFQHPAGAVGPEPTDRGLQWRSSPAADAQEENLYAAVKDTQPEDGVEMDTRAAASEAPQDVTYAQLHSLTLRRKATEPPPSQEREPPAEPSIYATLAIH
Test: FACS

Binder	EC50
B1	0.362 nM
B2	0.345 nM
B3	1.88 nM
B4	0.262 nM
B5	0.931 nM

Target: monkey ILT4-ECD (cynomolgus)
Sequence (chain, as listed by the source): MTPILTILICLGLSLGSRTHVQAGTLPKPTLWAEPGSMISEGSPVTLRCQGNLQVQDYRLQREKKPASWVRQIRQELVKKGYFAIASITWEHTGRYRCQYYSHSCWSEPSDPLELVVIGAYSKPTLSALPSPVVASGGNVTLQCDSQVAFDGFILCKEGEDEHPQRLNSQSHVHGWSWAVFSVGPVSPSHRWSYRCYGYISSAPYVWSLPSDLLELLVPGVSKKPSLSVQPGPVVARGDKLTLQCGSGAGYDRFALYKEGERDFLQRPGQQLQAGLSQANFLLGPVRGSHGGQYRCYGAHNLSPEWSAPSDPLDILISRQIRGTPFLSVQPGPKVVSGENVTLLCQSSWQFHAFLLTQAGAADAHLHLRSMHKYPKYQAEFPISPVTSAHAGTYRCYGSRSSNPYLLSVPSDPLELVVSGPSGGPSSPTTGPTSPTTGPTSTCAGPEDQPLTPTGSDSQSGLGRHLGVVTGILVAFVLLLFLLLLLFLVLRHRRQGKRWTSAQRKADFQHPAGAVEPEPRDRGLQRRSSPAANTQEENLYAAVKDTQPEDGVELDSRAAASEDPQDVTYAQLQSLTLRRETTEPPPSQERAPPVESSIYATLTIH
Test: ELISA

Binder	EC50
B1	0.401 nM
B6	0.008 nM
B7	0.047 nM
B8	0.935 nM

Target: human ILT4-ECD (human)
Sequence (chain, as listed by the source): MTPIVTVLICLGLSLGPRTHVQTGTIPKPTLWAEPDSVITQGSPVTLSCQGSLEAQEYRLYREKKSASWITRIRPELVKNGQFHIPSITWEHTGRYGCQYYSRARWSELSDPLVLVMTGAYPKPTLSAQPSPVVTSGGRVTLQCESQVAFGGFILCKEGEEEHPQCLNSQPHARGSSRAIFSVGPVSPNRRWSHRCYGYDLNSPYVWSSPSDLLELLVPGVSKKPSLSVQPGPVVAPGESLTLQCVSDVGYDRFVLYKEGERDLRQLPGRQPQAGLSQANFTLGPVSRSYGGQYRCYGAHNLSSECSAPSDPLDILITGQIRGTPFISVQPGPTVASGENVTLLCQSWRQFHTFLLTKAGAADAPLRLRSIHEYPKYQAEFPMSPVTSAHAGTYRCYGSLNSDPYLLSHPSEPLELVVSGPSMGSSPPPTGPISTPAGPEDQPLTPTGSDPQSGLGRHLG
Test: ELISA

Binder	EC50
B1	0.014 nM
B2	0.021 nM
B6	0.032 nM
B7	0.012 nM
B8	0.026 nM
B9	0.023 nM
B10	0.015 nM
B3	0.015 nM
B11	0.029 nM
B4	0.012 nM
B12	0.056 nM
B13	0.025 nM
B5	0.036 nM

Target: huILT4 protein (human)
Test: competition, FACS, blocking HLA-G

Binder	IC50
B1	3.99 nM
B2	5.33 nM
B9	8.86 nM
B10	8.6 nM
B14	3.4 nM
B12	9.34 nM
B13	10.6 nM
B15	6.49 nM

Target: huILT4 protein (human)
Test: competition, ELISA, blocking SEMA4A

Binder	IC50
B1	34.8 nM
B2	40.9 nM
B9	47.9 nM
B10	52.9 nM
B3	48.1 nM
B14	34.1 nM
B12	65 nM
B13	61.5 nM
